# Experimental data as given in patent US20080227698A1, “OLIGOPEPTIDES FOR TREATMENT OF OSTEOPOROSIS AND OTHER BONE DISEASES AND METHODS THEREOF” (Washington University, priority 2005, published 2008).
# T1: human apoER2 on stably transfected LRP-null CHO cells (human, UniProt Q14114 33-963)
# T1 construct: whole, on cells
# T1 sequence (looked up): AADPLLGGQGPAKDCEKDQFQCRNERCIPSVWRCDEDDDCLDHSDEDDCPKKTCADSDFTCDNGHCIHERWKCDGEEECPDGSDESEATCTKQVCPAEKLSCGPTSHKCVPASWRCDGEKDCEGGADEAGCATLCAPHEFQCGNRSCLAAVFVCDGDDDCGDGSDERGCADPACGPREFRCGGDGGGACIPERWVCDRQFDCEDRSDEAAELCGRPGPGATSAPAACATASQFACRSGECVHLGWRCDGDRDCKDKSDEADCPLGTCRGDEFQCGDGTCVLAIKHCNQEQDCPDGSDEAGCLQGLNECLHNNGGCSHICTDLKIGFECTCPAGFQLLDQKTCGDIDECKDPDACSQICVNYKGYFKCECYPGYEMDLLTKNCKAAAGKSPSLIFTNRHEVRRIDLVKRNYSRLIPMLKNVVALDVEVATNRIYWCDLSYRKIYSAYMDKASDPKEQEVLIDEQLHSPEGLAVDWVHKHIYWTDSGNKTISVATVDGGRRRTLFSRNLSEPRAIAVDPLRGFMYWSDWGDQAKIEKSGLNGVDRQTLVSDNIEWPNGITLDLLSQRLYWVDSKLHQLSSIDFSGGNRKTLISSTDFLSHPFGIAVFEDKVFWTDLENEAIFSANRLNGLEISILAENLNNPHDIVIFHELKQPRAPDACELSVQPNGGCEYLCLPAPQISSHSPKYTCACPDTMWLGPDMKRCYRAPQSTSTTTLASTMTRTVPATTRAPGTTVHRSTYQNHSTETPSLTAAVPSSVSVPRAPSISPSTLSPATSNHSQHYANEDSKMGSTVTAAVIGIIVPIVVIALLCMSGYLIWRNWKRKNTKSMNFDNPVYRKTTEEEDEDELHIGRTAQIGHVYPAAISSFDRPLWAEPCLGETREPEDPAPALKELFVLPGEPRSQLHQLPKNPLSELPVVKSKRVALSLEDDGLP
# Key:
# ST-2 cells = experiment: Alkaline phosphatase activity in ST-2 cells infected with DKK1 retrovirus; type: cell-based; conditions: increasing amounts of oligopeptide; non-transfected cells approximately 0.14 units, DKK1-infected cells about 0.02 units
# Excerpt: Osteoblasts are cells which build bone. One marker for osteoblast activity is the cell surface enzyme alkaline phosphatase (AP). ST-2 cells are an osteoblast-derived cell line which provides an in vitro model system for studying osteoblast activity. […] Treatment of the transfected cells with increasing amounts of a Mesd oligopeptide having sequence
# LRP5 = LRP5 (Homo sapiens, UniProt O75197); experiment: ^125I-DKK1 binding to LRP5, competition by Mesd or oligopeptide (FIG. 10B)
# LRP5, sequence (O75197 32-1615): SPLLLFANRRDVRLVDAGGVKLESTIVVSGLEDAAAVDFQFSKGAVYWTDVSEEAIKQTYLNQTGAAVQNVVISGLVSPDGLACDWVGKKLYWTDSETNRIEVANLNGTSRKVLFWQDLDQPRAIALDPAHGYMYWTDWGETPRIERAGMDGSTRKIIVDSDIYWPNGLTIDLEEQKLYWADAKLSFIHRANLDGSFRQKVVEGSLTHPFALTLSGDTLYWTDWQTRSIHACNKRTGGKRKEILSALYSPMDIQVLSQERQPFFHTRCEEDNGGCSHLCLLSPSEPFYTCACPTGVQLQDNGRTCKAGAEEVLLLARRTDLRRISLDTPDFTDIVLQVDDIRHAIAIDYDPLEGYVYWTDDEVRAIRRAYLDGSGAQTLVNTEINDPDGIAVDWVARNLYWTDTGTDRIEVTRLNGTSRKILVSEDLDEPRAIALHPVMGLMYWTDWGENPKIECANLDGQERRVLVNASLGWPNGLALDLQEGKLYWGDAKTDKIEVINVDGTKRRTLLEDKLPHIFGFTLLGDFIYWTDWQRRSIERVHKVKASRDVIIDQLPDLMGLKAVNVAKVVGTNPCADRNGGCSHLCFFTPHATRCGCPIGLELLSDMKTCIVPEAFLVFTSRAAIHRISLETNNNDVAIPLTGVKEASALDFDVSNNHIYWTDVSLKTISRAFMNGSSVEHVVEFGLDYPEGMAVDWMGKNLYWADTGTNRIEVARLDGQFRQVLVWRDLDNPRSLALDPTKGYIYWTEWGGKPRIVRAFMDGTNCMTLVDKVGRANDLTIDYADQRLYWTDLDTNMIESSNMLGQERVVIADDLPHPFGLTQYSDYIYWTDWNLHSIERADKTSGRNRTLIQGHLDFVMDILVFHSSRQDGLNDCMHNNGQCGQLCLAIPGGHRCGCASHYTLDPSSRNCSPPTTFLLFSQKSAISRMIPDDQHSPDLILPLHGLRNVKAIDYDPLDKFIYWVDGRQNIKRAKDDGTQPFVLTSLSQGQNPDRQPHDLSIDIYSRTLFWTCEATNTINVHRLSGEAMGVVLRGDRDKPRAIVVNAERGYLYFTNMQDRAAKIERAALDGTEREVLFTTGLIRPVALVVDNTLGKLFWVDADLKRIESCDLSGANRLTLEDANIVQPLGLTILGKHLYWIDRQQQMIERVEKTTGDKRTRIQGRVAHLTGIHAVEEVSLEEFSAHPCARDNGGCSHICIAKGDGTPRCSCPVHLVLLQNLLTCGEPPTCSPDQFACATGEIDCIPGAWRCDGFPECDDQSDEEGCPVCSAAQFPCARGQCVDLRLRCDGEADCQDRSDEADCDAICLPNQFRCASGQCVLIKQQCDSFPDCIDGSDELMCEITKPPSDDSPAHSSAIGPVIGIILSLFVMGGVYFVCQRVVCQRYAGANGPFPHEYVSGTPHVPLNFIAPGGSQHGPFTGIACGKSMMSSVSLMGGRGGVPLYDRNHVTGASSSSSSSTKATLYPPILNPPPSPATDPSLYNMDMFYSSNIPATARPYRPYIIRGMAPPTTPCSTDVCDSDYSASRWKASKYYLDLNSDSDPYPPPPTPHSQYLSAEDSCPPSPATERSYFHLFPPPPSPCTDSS
# Method: (§1) In order to investigate the binding of Mesd polypeptide and an Mesd oligopeptide to either LRP5 or LRP6, binding assays were performed using ^125I-Mesd or ^125I-DKK1 (FIG. 10).
# LRP6 = LRP6 (Homo sapiens, UniProt O75581); experiment: ^125I-Mesd binding to LRP6, competition by Mesd or oligopeptide (FIG. 10C); parameters: plasmid pCS-Myc-hLRP6 containing the full-length human LRP6 cDNA; HA; expressed in transfected cells; host or cells: human HT1080 cells, stably transduced (pLNCX2 retroviral vector); conditions: compared with LRP5 (up to about 10-fold)
# LRP6, sequence (O75581 20-1613): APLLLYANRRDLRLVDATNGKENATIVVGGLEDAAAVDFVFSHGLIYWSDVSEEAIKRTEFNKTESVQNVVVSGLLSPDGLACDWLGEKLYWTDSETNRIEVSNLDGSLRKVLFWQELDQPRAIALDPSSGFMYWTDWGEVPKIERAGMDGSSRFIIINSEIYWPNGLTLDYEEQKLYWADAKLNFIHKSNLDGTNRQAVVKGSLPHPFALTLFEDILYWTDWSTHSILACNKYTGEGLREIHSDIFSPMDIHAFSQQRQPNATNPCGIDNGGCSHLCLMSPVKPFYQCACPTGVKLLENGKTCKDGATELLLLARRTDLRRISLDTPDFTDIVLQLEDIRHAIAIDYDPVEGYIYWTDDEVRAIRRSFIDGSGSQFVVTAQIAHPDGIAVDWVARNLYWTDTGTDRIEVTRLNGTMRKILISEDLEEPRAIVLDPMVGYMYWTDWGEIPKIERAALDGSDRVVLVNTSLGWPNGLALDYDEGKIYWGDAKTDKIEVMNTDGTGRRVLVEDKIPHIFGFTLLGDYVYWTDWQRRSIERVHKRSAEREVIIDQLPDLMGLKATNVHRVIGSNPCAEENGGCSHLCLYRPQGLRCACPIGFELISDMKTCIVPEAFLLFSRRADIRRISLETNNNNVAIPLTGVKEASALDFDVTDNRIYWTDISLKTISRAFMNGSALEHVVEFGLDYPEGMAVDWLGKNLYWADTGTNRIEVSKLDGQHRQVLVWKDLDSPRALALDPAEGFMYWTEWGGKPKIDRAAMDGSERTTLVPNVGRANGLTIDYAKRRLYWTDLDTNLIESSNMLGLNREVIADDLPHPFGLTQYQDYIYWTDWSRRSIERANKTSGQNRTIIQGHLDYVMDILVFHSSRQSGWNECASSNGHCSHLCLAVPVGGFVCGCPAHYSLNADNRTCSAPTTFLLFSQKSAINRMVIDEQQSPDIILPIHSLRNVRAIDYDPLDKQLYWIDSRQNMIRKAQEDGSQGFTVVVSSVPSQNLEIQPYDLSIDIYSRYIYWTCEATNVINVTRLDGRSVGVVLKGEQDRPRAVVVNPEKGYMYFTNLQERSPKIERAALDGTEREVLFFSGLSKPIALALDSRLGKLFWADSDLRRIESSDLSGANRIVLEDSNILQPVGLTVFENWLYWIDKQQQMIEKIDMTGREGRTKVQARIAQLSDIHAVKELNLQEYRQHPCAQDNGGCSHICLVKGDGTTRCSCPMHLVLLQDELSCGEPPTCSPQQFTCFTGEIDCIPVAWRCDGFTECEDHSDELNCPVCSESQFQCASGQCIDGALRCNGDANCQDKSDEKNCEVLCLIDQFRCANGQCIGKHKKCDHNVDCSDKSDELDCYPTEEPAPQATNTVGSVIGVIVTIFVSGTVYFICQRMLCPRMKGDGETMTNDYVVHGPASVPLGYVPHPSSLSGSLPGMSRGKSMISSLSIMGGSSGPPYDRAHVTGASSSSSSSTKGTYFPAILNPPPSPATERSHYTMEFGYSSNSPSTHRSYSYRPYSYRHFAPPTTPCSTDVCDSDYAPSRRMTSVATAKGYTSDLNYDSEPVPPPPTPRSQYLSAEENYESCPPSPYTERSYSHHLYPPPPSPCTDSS
# Method: as §1
# [1] = biological target: T2, LRP6 on LRP6-transduced HT1080 cells (HA-tagged) (UniProt O75581 20-1613, limits assumed); experiment: competition against 125I-DKK1 for LRP6 (FIG. 10D)
# T2 construct: whole, on cells; also called mature LRP6; cell surface LRP6
# T2 sequence (O75581 20-1613 limits assumed): as the sequence (O75581 20-1613) above
# [2] = biological target: T3, human Myc-tagged LRP5 on transiently transfected HEK293 cells (human, UniProt O75197 32-1615); experiment: competition against 125I-Mesd for LRP5 (FIG. 10A)
# T3 construct: whole, on cells; also called mature LRP5; pcDNA3.1C-Myc-hLRP5
# T3 sequence (O75197 32-1615): as the sequence (O75197 32-1615) above
# [3] = biological target: T4, human VLDLR on stably transfected LRP-null CHO cells (human, UniProt P98155 28-873); experiment: 125I-Mesd binding to stably transfected LRP-null CHO cells, 4 h at 4 C, with or without 500 nM Mesd
# T4 construct: whole, on cells
# [4] = biological target: T1, human apoER2 on stably transfected …; experiment: as above
# [5] = biological target: T2, LRP6 on LRP6-transduced HT1080 cells …; experiment: Scatchard analysis of 125I-Mesd saturation binding to LRP6-transduced HT1080 cells, 3 h at 4 C
# Excerpt: (C) Scatchard plots of data in B. All values are the average of triple determinations with the s.d. indicated by error bars.
# [6] = biological target: T2, LRP6 on LRP6-transduced HT1080 cells …; experiment: binding of truncated Mesd mutants to cell surface LRP6 (FIG. 3B)
molecule,measurement,setting,value
KGGGSKEKNKTKPEKAKKKEGDPKPRASKEDNRAGSR [SEQ ID NO: 20],Alkaline phosphatase (AP) activity,ST-2 cells,increasing levels of AP activity
same,Reduction in binding of ^125I-DKK1 to LRP5,LRP5,small but significant reduction
same,Reduction of binding of ^125I-Mesd to LRP6,LRP6,even greater reduction
"recombinant mouse Mesd protein (wild type) (other, not shown: small tags and cut ends, 125I-iodinated (IODO-GEN) when used as radioligand, Made in E. coli from full-length mouse Mesd cDNA; also called wild type Mesd) ADTPGEATPPPRKKKDIRDYNDADMARLLEQWEKDDDIEEGDLPEHKRPSAPIDFSKLDPGKPESILKMTKKGKTLMMFVTVSGNPTEKETEEITSLWQGSLFNANYDVQRFIVGSDRAIFMLRDGSYAWEIKDFLVSQDRCAEVTLEGQMYPGKGGGSKEKNKTKPEKAKKKEGDRKPRASKEDNRAGSRREDL",fold reduction of ^125I-DKK1 binding,[1],> 2 fold
same,fold reduction of ^125I-Mesd binding,[2],~10 fold
same,binding result,[3],no binding (tested: 5 nM 125I-Mesd)
same,binding result,[4],no binding (tested: 5 nM 125I-Mesd)
same,Kd,[5],~3.3 nM
"Mesd(12-155) (other, not shown: small tags and cut ends, 125I-iodinated when used as radioligand, also called truncated Mesd mutant lacking both the N-terminal and C-terminal regions) RKKKDIRDYNDADMARLLEQWEKDDDIEEGDLPEHKRPSAPIDFSKLDPGKPESILKMTKKGKTLMMFVTVSGNPTEKETEEITSLWQGSLFNANYDVQRFIVGSDRAIFMLRDGSYAWEIKDFLVSQDRCAEVTLEGQMYPGK",binding result,[6],no binding
